Source: IntAct's records for PubMed 23460737

B1: Protein THEMIS (Homo sapiens), Q8N1K5-1 (parent)
chain: MALSLEEFVHSLDLRTLPRVLEIQAGIYLEGSIYEMFGNECCFSTGEVIKITGLKVKKIIAEICEQIEGCESLQPFELPMNFPGLFKIVADKTPYLTMEEITRTIHIGPSRLGHPCFYHQKDIKLENLIIKQGEQIMLNSVEEIDGEIMVSCAVARNHQTHSFNLPLSQEGEFYECEDERIYTLKEIVEWKIPKNRTRTVNLTDFSNKWDSTNPFPKDFYGTLILKPVYEIQGVMKFRKDIIRILPSLDVEVKDITDSYDANWFLQLLSTEDLFEMTSKEFPIVTEVIEAPEGNHLPQSILQPGKTIVIHKKYQASRILASEIRSNFPKRHFLIPTSYKGKFKRRPREFPTAYDLEIAKSEKEPLHVVATKAFHSPHDKLSSVSVGDQFLVHQSETTEVLCEGIKKVVNVLACEKILKKSYEAALLPLYMEGGFVEVIHDKKQYPISELCKQFRLPFNVKVSVRDLSIEEDVLAATPGLQLEEDITDSYLLISDFANPTECWEIPVGRLNMTVQLVSNFSRDAEPFLVRTLVEEITEEQYYMMRRYESSASHPPPRPPKHPSVEETKLTLLTLAEERTVDLPKSPKRHHVDITKKLHPNQAGLDSKVLIGSQNDLVDEEKERSNRGATAIAETFKNEKHQK
B2: Protein THEMIS (Mus musculus), Q8BGW0 (parent)
chain: MALSLEEFVYSLDLRTLPRVLEIQSGIYFEGSVYEMFGNECCLSTGEVIKITGLKIKKMMAEICEGAIGGCESQKPFELPMNFPGLFKVMADKTPYLSIEEITRTVNIGPSRLGHPCFYHLKDIKLENLIIKQGEPIRFNSVEEINGETLVNCGVVRNHQSHSFTLPLSQEGEFYECEDEHIYTLKEIVEWKIPKNRTRTVKLTDFSNKWDSTNPFPEDFYGTLILKPVYEIQGVLKFQKDIVRILPSLDVEVKDITDSYDANWFLQLLSTDDLFEMTSKEFPVVAEVVEISQGNHLPQSILQREKTIVIHKKYQASRILASEIRSNFPKRHFLIPISYKGKFKRRPREFPTAYDLQIAKSRKETLHVVATKAFHTLHKELSPVSVGDQFLVHHSETTEVVFEGTRKVNVLTCEKVLNKTREDAQLPLYMEGGFVEVIHDKKQYQISELCTQFCWPFNVKVAVRDLSIKDDILAATPGLQLEEDITDSYLLISDFANPEECWEIPMSRLNMTVRLVNGSSLPADAGLLQVRSFVEEITEEQYYMMRRYESSLSHPPPRPPKHPSAEEMKLTLLSLAEERTINLPKSLKSHHVDRPKKLPSDESGQDSRAPVGFQNDVADVERQKSKHGPLQPQAPL
B3: Protein THEMIS (Homo sapiens), Q8N1K5-1 (parent)
chain: B1 chain
partner: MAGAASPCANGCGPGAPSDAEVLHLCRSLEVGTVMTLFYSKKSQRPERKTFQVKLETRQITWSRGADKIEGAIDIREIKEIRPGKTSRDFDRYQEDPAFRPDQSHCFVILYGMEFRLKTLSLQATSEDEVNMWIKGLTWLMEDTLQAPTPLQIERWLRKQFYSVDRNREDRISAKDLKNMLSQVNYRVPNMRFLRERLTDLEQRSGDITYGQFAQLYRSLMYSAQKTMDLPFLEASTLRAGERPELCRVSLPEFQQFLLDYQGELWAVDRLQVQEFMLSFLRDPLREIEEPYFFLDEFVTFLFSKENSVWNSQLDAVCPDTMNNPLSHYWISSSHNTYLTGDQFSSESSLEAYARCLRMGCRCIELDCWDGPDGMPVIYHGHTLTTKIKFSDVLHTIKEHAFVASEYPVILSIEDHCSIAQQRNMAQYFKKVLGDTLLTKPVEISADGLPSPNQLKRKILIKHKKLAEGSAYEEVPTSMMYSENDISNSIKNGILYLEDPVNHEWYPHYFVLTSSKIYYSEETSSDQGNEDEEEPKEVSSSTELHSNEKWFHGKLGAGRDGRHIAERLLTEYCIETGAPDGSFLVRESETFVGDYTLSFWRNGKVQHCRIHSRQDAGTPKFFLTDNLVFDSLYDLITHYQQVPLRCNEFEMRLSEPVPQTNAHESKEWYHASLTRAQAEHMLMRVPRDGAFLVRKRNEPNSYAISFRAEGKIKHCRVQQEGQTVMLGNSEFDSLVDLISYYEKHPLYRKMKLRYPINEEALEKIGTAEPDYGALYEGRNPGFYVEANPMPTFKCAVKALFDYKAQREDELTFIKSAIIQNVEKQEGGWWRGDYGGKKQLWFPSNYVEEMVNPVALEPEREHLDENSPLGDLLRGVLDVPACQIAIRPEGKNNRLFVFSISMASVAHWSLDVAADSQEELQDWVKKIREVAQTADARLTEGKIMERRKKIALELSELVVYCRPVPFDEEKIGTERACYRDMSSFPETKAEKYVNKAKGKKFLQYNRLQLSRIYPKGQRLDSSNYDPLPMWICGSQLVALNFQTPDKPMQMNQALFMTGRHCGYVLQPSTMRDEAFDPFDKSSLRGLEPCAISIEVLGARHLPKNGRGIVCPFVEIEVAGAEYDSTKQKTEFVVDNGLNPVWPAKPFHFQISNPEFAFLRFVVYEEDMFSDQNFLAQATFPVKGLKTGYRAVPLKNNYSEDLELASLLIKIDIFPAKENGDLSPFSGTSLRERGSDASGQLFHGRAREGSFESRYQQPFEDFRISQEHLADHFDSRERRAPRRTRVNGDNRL

Variants of: B1
Settings: with grb2_human GRB2, P62993
Chain of grb2_human GRB2, P62993 (P62993 whole entry, looked up): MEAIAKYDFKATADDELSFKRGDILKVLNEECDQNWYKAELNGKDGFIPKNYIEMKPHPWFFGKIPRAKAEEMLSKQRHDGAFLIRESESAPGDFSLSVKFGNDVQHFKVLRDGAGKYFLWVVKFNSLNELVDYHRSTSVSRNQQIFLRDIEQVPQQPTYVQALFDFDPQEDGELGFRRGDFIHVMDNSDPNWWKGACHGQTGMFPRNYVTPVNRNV

Row | Variant | effect of a mutation on the interaction
1 | P554A | disrupting interaction strength
2 | R556A | disrupting interaction strength
3 | P557A | disrupting interaction strength
4 | K559A | disrupting interaction strength

Variants of: B1
Settings: with grb2_human GRB2, P62993
Remark: another data set of the same source

Row | Variant | effect of a mutation on the interaction
5 | Y540F;Y541F | disrupting interaction strength

Variants of: B1
Settings: with grb2_human GRB2, P62993
Remark: another data set of the same source

Row | Variant | effect of a mutation on the interaction
6 | Y540F;Y541F | with no effect
7 | Y540A;Y541A | with no effect

Variants of: B1
Settings: with grb2_human GRB2, P62993
Remark: another data set of the same source

Row | Variant | effect of a mutation on the interaction
8 | P555A;P558A | disrupting interaction strength

Variants of: B1
Settings: with grb2_human GRB2, P62993
Remark: another data set of the same source

Row | Variant | effect of a mutation on the interaction
9 | P555A;P558A | disrupting interaction strength
10 | P582A;P585A | with no effect

Variants of: B2
Settings: with grb2_human GRB2, P62993

Row | Variant | effect of a mutation on the interaction
11 | P557A;P560A | disrupting interaction strength

Variants of: B3
Settings: with plcg1_human PLCG1, P19174

Row | Variant | effect of a mutation on the interaction
12 | P555A;P558A | decreasing interaction strength
